{"source": "patent US20240343803A1", "about": "(SHANDONG SIMCERE BIOPHARMACEUTICAL, published 2024)", "binders": {"B1": {"name": "PVRIG-A105-H2 (Fc fusion)", "chain": "EVQLVESGGGLVQPGGSLRLSCAASGRTFDRHTMTWFRQAPGKEREFVATASRIPGDTYYVDSVKGRFTISRDNAKNSLYLQMNSLRAEDTAVYYCAATSAYCSEVDCYEKGSWYDNWGQGTMVTVSS", "notes": "VHH-human IgG1 Fc format is stated for the parental VHH antibodies; not restated for the humanized variants; also called A105 VH2; not shown: human IgG1 hinge-CH2-CH3 (Fc)"}, "B2": {"name": "PVRIG-A105-H4 (Fc fusion)", "chain": "B1 chain with V61S, D62H", "notes": "VHH-human IgG1 Fc format is stated for the parental VHH antibodies; not restated for the humanized variants; also called A105.VH4; not shown: human IgG1 hinge-CH2-CH3 (Fc)"}, "B3": {"name": "PVRIG-A105-H3 (Fc fusion)", "chain": "B1 chain with L79V", "notes": "VHH-human IgG1 Fc format is stated for the parental VHH antibodies; not restated for the humanized variants; also called A105.VH3; not shown: human IgG1 hinge-CH2-CH3 (Fc)"}, "B4": {"name": "PVRIG-A105 (Fc fusion)", "chain": "EVQLVESGGGLVQAGGSLRLSCAASGRTFDRHTMTWFRQAPGKEREFVATASRIPGDTYYSHSVKGRFTISRDNAKNTVYLQLNNLKPEDTAVYYCAATSAYCSEVDCYEKGSWYDNWGQGIQVTVSS", "notes": "Alpaca VHH expressed as VHH-hinge-CH2-CH3 of human IgG1; not shown: human IgG1 hinge-CH2-CH3 (Fc)"}, "B5": {"name": "PVRIG-A105-H3a (Fc fusion)", "chain": "B1 chain with L79V, C103S, C108S", "notes": "VHH-human IgG1 Fc format is stated for the parental VHH antibodies; not restated for the humanized variants; also called A105.VH3a; not shown: human IgG1 hinge-CH2-CH3 (Fc)"}, "B6": {"name": "PVRIG-A105-H5 (Fc fusion)", "chain": "B1 chain with T122I, M123Q", "notes": "VHH-human IgG1 Fc format is stated for the parental VHH antibodies; not restated for the humanized variants; also called A105.VH5; not shown: human IgG1 hinge-CH2-CH3 (Fc)"}, "B7": {"name": "SRF813-hIgG1 (antibody, V domains shown)", "VH": "QVQLVQSGAEVKKPGSSVKVSCKASGGTFSSAAISWVRQAPGQGLEWMGNIIPIVGIANYAQKFQGRVTITADESTSTAYMELSSLRSEDTAVYYCARDTGRGYTRHFWFDPWGQGTLVTVSS", "VL": "DIQMTQSPSSLSASVGDRVTITCRASQSISSYLNWYQQKPGKAPKLLIYAASSLQSGVPSRFSGSGSGTDFTLTISSLQPEDFATYYCQQSDILYTFGGGTKVEIK", "notes": "positive control; human IgG1 format"}, "B8": {"name": "COM701-hIgG1 (antibody, V domains shown)", "VH": "QVQLVQSGAEVKKPGASVKVSCKASGYTFTDYNINWVRQAPGQGLEWMGYIYPYIGGSGYAQKFQGRVTMTRDTSTSTVYMELSSLRSEDTAVYYCAREDKTARNAMDYWGQGTLVTVSS", "VL": "DIQMTQSPSSLSASVGDRVTITCRVSENIYSNLAWYQQKPGKAPKLLIYEATNLAEGVPSRFSGSGSGTDFTLTISSLQPEDFATYYCQHFWGTPYTFGQGTKLEIK", "notes": "as for B7"}, "B9": {"name": "PVRIG-A118-H3 (Fc fusion)", "chain": "EVQLVESGGGLVQPGGSLRLSCAASETYFDLYVMGWYRQAPGKDRELVATITYTGSIKYVDSVKGRFTISRGDAKNSLYLQMNSLRAEDTAVYYCNADPSGLGRKVYWGQGTMVTVSS", "notes": "VHH-human IgG1 Fc format is stated for the parental VHH antibodies; not restated for the humanized variants; also called A118.VH3; not shown: human IgG1 hinge-CH2-CH3 (Fc)"}, "B10": {"name": "PVRIG-A118 (Fc fusion)", "chain": "QVQLVESGGGLVQAGGSLRLSCAASETYFDLYVMGWYRQAPGKDRELVATITYTGSIKIVDSVKDRFTISRGDAKNTVSLQMSSLKPEDTAVYFCNADPSGLGRKVYWGQGTQVTVSS", "notes": "as for B4"}, "B11": {"name": "PVRIG-A118-H7 (Fc fusion)", "chain": "B9 chain with Y94F", "notes": "VHH-human IgG1 Fc format is stated for the parental VHH antibodies; not restated for the humanized variants; also called A118.VH7; not shown: human IgG1 hinge-CH2-CH3 (Fc)"}}, "key": {"[1]": {"target": "T1, human PVRIG-mFc protein (Acro, PVG-H5253) (human, UniProt Q6DKI7 41-171, limits assumed)", "T1 construct": "extracellular domain; Bought protein; also called PVRIG-ECD-mFc; not shown: mouse Fc tag of the bought protein", "T1 sequence (looked up)": "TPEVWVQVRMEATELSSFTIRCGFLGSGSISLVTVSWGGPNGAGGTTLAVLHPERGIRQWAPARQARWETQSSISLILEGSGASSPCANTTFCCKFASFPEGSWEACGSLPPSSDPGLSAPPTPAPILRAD", "test": "FACS blocking of PVRIG-mFc binding to CHO-K1-CD112 cells; competitor CD112", "procedure,_shortened": "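Zombie violet-stained CHO-K1-CD112 cells were added for 30 min at 4° C, then PE goat anti-mouse IgG Fc (1:250) was applied and mean fluorescence intensity read on a BD Canto II. Curves were fitted with four-parameter logistic models in GraphPad Prism 9. IC50 and curve AUC were reported as percentages of the reference antibody values.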"}, "[2]": {"target": "T2, human PVRIG-his (AcroBiosystems, Cat NO. PVG-H52H4) (human, UniProt Q6DKI7 41-171, limits assumed)", "T2 construct": "also called human PVRIG protein", "T2 sequence (looked up)": "T1 sequence (looked up)", "test": "SPR (BIAcore), antibody captured on Protein A chip, human PVRIG-His analyte", "protocol": "Biacore was used to detect the specific binding between anti-PVRIG antibody and human PVRIG protein. Protein A chip was used in the BIAcore assay. The time required for the chip to capture the diluted antibody and saturate the binding antigen to reach Rₘₐₓ (Maximum binding capacity, 50 RU) was measured by manual run. […] The affinity of antibody for antigen was measured by multi-cycle kinetics. In each cycle, the antibodies were injected prior to the injection of gradient concentraions of PVRIG proteins allowing the occurrence of antibody-antigen association and dissociation After each cycle, the Protein A chip was regenerated by Glycine, pH 1.5 (to remove the proteins on the chip). The affinity of antibody for antigen was calculated by BIAcore T200 analysis software."}}, "note": "Numbering of substitutions follows the chain as printed."}
{"binder": "B1", "values": [{"measurement": "% IC50 to COM701-hIgG4", "setting": "[1]", "value": 109, "unit": "%"}, {"measurement": "% IC50 to SO35-hIgG1", "setting": "[1]", "value": 92.3, "unit": "%"}, {"measurement": "% IC50 to parental Ab", "setting": "[1]", "value": 104, "unit": "%"}]}
{"binder": "B2", "values": [{"measurement": "% AUC to COM701-hIgG4", "setting": "[1]", "value": 112, "unit": "%"}, {"measurement": "% AUC to SO35-hIgG1", "setting": "[1]", "value": 64.6, "unit": "%"}, {"measurement": "% AUC to parental Ab", "setting": "[1]", "value": 98.4, "unit": "%"}, {"measurement": "% IC50 to COM701-hIgG4", "setting": "[1]", "value": 110, "unit": "%"}, {"measurement": "% IC50 to SO35-hIgG1", "setting": "[1]", "value": 93.2, "unit": "%"}, {"measurement": "% IC50 to parental Ab", "setting": "[1]", "value": 105, "unit": "%"}]}
{"binder": "B3", "values": [{"measurement": "% AUC to COM701-hIgG4", "setting": "[1]", "value": 109, "unit": "%"}, {"measurement": "% AUC to SO35-hIgG1", "setting": "[1]", "value": 62.9, "unit": "%"}, {"measurement": "% AUC to parental Ab", "setting": "[1]", "value": 95.8, "unit": "%"}, {"measurement": "% IC50 to COM701-hIgG4", "setting": "[1]", "value": 109, "unit": "%"}, {"measurement": "% IC50 to SO35-hIgG1", "setting": "[1]", "value": 91.9, "unit": "%"}, {"measurement": "% IC50 to parental Ab", "setting": "[1]", "value": 104, "unit": "%"}]}
{"binder": "B4", "values": [{"measurement": "% AUC to COM701-hIgG4", "setting": "[1]", "value": 114, "unit": "%"}, {"measurement": "% AUC to SO35-hIgG1", "setting": "[1]", "value": 65.6, "unit": "%"}, {"measurement": "% AUC to parental Ab", "setting": "[1]", "value": 100, "unit": "%"}, {"measurement": "% IC50 to COM701-hIgG4", "setting": "[1]", "value": 104, "unit": "%"}, {"measurement": "% IC50 to SO35-hIgG1", "setting": "[1]", "value": 88.3, "unit": "%"}, {"measurement": "% IC50 to parental Ab", "setting": "[1]", "value": 100, "unit": "%"}]}
{"binder": "B5", "values": [{"measurement": "% AUC to COM701-hIgG4", "setting": "[1]", "value": 3530, "unit": "%"}, {"measurement": "% AUC to SO35-hIgG1", "setting": "[1]", "value": 2040, "unit": "%"}, {"measurement": "% AUC to parental Ab", "setting": "[1]", "value": 3100, "unit": "%"}, {"measurement": "% IC50 to COM701-hIgG4", "setting": "[1]", "value": 3060, "unit": "%"}, {"measurement": "% IC50 to SO35-hIgG1", "setting": "[1]", "value": 2590, "unit": "%"}, {"measurement": "% IC50 to parental Ab", "setting": "[1]", "value": 2930, "unit": "%"}]}
{"binder": "B6", "values": [{"measurement": "% IC50 to COM701-hIgG4", "setting": "[1]", "value": 110, "unit": "%"}, {"measurement": "% IC50 to SO35-hIgG1", "setting": "[1]", "value": 93.4, "unit": "%"}, {"measurement": "% IC50 to parental Ab", "setting": "[1]", "value": 106, "unit": "%"}]}
{"binder": "B7", "values": [{"measurement": "Kd", "setting": "[2]", "value": 0.278, "unit": "nM"}, {"measurement": "koff", "setting": "[2]", "value": 0.000317, "unit": "s⁻¹"}, {"measurement": "kon", "setting": "[2]", "value": "1.14e+06", "unit": "M⁻¹ s⁻¹"}]}
{"binder": "B8", "values": [{"measurement": "Kd", "setting": "[2]", "value": 0.319, "unit": "nM"}, {"measurement": "koff", "setting": "[2]", "value": 0.000651, "unit": "s⁻¹"}, {"measurement": "kon", "setting": "[2]", "value": "2.04e+06", "unit": "M⁻¹ s⁻¹"}]}
{"binder": "B9", "values": [{"measurement": "% AUC to COM701-hIgG4", "setting": "[1]", "value": 127, "unit": "%"}, {"measurement": "% AUC to SO35-hIgG1", "setting": "[1]", "value": 65.8, "unit": "%"}, {"measurement": "% AUC to parental Ab", "setting": "[1]", "value": 107, "unit": "%"}, {"measurement": "% IC50 to COM701-hIgG4", "setting": "[1]", "value": 146, "unit": "%"}, {"measurement": "% IC50 to SO35-hIgG1", "setting": "[1]", "value": 98.8, "unit": "%"}, {"measurement": "% IC50 to parental Ab", "setting": "[1]", "value": 104, "unit": "%"}]}
{"binder": "B10", "values": [{"measurement": "% AUC to COM701-hIgG4", "setting": "[1]", "value": 119, "unit": "%"}, {"measurement": "% AUC to SO35-hIgG1", "setting": "[1]", "value": 61.7, "unit": "%"}, {"measurement": "% AUC to parental Ab", "setting": "[1]", "value": 100, "unit": "%"}, {"measurement": "% IC50 to COM701-hIgG4", "setting": "[1]", "value": 141, "unit": "%"}, {"measurement": "% IC50 to SO35-hIgG1", "setting": "[1]", "value": 95.3, "unit": "%"}, {"measurement": "% IC50 to parental Ab", "setting": "[1]", "value": 100, "unit": "%"}]}
{"binder": "B11", "values": [{"measurement": "% AUC to COM701-hIgG4", "setting": "[1]", "value": 124, "unit": "%"}, {"measurement": "% AUC to SO35-hIgG1", "setting": "[1]", "value": 64.3, "unit": "%"}, {"measurement": "% AUC to parental Ab", "setting": "[1]", "value": 104, "unit": "%"}, {"measurement": "% IC50 to COM701-hIgG4", "setting": "[1]", "value": 143, "unit": "%"}, {"measurement": "% IC50 to SO35-hIgG1", "setting": "[1]", "value": 97.1, "unit": "%"}, {"measurement": "% IC50 to parental Ab", "setting": "[1]", "value": 102, "unit": "%"}]}
